Experimental data as given in patent publication US20140017253A1 (ONCOMED PHARMACEUTICALS, published 2014).

T1: human RSPO3 (recombinant, R&D Systems) (human, UniProt Q9BXY4 22-272)
T1 sequence: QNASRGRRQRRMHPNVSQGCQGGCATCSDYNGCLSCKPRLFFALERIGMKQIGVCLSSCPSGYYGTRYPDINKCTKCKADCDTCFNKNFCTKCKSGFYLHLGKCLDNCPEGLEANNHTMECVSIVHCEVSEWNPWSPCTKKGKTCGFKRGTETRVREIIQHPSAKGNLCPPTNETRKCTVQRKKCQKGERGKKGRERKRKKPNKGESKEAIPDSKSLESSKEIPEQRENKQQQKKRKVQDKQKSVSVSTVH

T2: LGR5-Fc fusion protein (human, UniProt O75473 22-564)
T2 construct: range 22-564; Expressed in insect cells with baculovirus, purified on protein A; also called soluble LGR5-Fc; not shown: human Fc
T2 sequence (looked up): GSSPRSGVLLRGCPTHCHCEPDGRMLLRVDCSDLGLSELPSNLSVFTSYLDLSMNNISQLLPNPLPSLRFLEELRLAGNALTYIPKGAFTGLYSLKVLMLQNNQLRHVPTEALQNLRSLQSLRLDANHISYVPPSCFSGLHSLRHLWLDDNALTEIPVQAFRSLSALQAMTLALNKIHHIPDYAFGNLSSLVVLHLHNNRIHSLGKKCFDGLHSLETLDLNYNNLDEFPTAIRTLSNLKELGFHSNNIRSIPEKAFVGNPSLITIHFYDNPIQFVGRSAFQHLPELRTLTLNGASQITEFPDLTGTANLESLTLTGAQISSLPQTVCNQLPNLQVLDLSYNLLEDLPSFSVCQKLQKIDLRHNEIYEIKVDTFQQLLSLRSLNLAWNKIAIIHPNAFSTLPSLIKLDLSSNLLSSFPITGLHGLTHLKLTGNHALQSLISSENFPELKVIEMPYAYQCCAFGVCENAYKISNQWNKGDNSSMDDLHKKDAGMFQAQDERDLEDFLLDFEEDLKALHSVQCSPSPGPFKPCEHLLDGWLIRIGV

T3: recombinant human RSPO3 protein, biotinylated (human, UniProt Q9BXY4 22-272, biotinylated (sites not given))
T3 sequence: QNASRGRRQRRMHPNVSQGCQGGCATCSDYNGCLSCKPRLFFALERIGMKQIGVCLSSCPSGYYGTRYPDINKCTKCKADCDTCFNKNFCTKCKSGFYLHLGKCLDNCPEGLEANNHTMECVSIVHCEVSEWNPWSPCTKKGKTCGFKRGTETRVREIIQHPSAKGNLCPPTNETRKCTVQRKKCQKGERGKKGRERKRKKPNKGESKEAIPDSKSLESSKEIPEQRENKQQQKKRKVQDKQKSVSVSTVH


Assays:
[1] = biological target: T1, human RSPO3 (recombinant, R&D Systems); test: SPR (Biacore 2000), antibody captured by goat anti-human IgG on CM5 chip, human RSPO3 injected 300-37.5 nM
Method: The method used was different than described in Example 3. A goat anti-human IgG antibody was coupled to a carboxymethyl-dextran (CM5) SPR chip using standard amine-based chemistry (NHS/EDC) and blocked with ethanolamine. Antibodies (purified antibody or culture supernatant) were diluted to a concentration of 10 μg/ml in HBS-P-BSA (0.01M HEPES pH7.4, 0.15M NaCl, 0.005% v/v Polysorbate 20, 100 μg/ml BSA) and captured onto the chip via the anti-human IgG antibody. […] After each antigen injection 5 μl of 100 mM H₃PO₄ was injected to remove the antigen-antibody complex and a subsequent injection performed. Kinetic data were collected over time and were fit using the simultaneous global fit equation to yield affinity constants (KD values) for each antibody (Table 4).

LGR5-Fc fusion protein = biological target: T2, LGR5-Fc fusion protein; test: SPR (Biacore 2000), RSPO-Fc amine-coupled to CM5 chip, soluble LGR5-Fc injected 100-0.78 nM
Method: Binding affinities between RSPO proteins and LGR5 were analyzed by surface plasmon resonance. A soluble LGR5-Fc construct was generated using standard recombinant DNA techniques. Specifically, amino acids 1-564 of human LGR5 were ligated in frame to human Fc and the recombinant LGR5-Fc fusion protein was expressed in insect cells using baculovirus. The LGR5-Fc fusion protein was purified from the insect medium using protein A chromatography. Cleavage of the LGR5 signal sequence results in a mature LGR5-Fc fusion protein containing amino acids 22-564 of LGR5. […] Two-fold dilutions of soluble LGR5-Fc were injected over the chip surface (100 nM to 0.78 nM). Kinetic data were collected over time using a Biacore 2000 system from Biacore Life Sciences (GE Healthcare) and the data were fit using the simultaneous global fit equation to yield affinity constants (KD values) for each RSPO protein (Table 3).

[2] = biological target: T3, recombinant human RSPO3 protein, …; test: SPR (Biacore 2000), biotinylated human RSPO3 captured on streptavidin chip, antibody injected 100-0.78 nM
Method: The antibodies were serially diluted 2-fold from 100 nM to 0.78 nM in HBS-P (0.01M HEPES pH 7.4, 0.15M NaCl, 0.005% v/v Surfactant P20) and were injected over the chip surface. Kinetic data were collected over time and were fit using the simultaneous global fit equation to yield affinity constants (KD values) for each antibody.

Kd [1] [nM]	Kd (LGR5-Fc fusion protein) [nM]	Kd [2] [nM]	Binder
0.654			humanized anti-RSPO3 antibody h131R007 (antibody, human IgG2, kappa, IgG2; also called h131R005/131R007; h131R005) heavy: QVQLVQSGAEVKKPGASVKVSCKASGYTFTDYSIHWVRQAPGQGLEWIGYIYPSNGDSGYNQKFKNRVTMTRDTSTSTAYMELSRLRSEDTAVYYCATYFANNFDYWGQGTTLTVSSASTKGPSVFPLAPCSRSTSESTAALGCLVKDYFPEPVTVSWNSGALTSGVHTFPAVLQSSGLYSLSSVVTVPSSNFGTQTYTCNVDHKPSNTKVDKTVERKCCVECPPCPAPPVAGPSVFLFPPKPKDTLMISRTPEVTCVVVDVSHEDPEVQFNWYVDGVEVHNAKTKPREEQFNSTFRVVSVLTVVHQDWLNGKEYKCKVSNKGLPAPIEKTISKTKGQPREPQVYTLPPSREEMTKNQVSLTCLVKGFYPSDIAVEWESNGQPENNYKTTPPMLDSDGSFFLYSKLTVDKSRWQQGNVFSCSVMHEALHNHYTQKSLSLSPGK light: not shown
	14		RSPO2-Fc fusion protein (Fc fusion, Full-length human RSPO2 ligated in-frame to a human Fc region, expressed in insect cells; not shown: human Fc region) QGNRWRRSKRASYVSNPICKGCLSCSKDNGCSRCQQKLFFFLRREGMRQYGECLHSCPSGYYGHRAPDMNRCARCRIENCDSCFSKDFCTKCKVGFYLHRGRCFDECPDGFAPLEETMECVEGCEVGHWSEWGTCSRNNRTCGFKWGLETRTRQIVKKPVKDTIPCPTIAESRRCKMTMRHCPGGKRTPKAKEKRNKKKKRKLIERAQEQHSVFLATDRANQ
1.9		7.3	anti-RSPO3 antibody 131R003 (antibody, human IgG2, kappa, V domains shown, Same light chain as 131R002; also called parental 131R003; 131R003 (IgG2)) VH: QVQLKQSGPELVKPGASVKISCKASGYTFTDYSIHWVKQNHGKSLDWIGYIYPSNGDSGYNQKFKNRATLTVDTSYSTAYLEVRRLTFEDSAVYYCATYFANYFDYWGQGTTLTVSS VL: DIVLTQSPASLAVSLGQRATISCKASQSVDYDGDSYMNWYQQKPGQPPKLLIYAASNLESGIPARFSGSGSGTDFTLNIHPVEEEDAATYYCQQSNEDPLTFGAGTKLELKR
1.7			131R003CDR3 variant (antibody, human IgG2, kappa, V domains shown, also called 131R003 CDR3 variant (IgG2); 131R003 Heavy chain - Variant 1) VH: QVQLKQSGPELVKPGASVKISCKASGYTFTDYSIHWVKQNHGKSLDWIGYIYPSNGDSGYNQKFKNRATLTVDTSYSTAYLEVRRLTFEDSAVYYCATYFANNFDYWGQGTTLTVSS VL: DIVLTQSPASLAVSLGQRATISCKASQSVDYDGDSYMNWYQQKPGQPPKLLIYAASNLESGIPARFSGSGSGTDFTLNIHPVEEEDAATYYCQQSNEDPLTFGAGTKLELKR
1.3		8.2	anti-RSPO3 antibody 131R002 (antibody, human IgG2, kappa, V domains shown, Same light chain as 131R003; also called 131R002 (IgG2)) VH: QVQLQESGPELVKPGASVKISCKASGYTFTDYSIHWVKQNHGKSLDWIGYIYPSNGDSGYNQKFKNRATLTVDTSSSTAYLEVRRLTFEDSAVYYCATYFANYFDYWGQGTTLTVSS VL: DIVLTQSPASLAVSLGQRATISCKASQSVDYDGDSYMNWYQQKPGQPPKLLIYAASNLESGIPARFSGSGSGTDFTLNIHPVEEEDAATYYCQQSNEDPLTFGAGTKLELKR
0.686			humanized anti-RSPO3 antibody h131R011 (antibody, human IgG2, kappa, V domains shown, IgG2; also called h131R011 (IgG2)) VH: QVQLVQSGAEVKKPGASVKVSCKASGYTFTDYSIHWVRQAPGQGLEWIGYIYPSNGDSGYNQKFKNRVTMTRDTSTSTAYMELSRLRSEDTAVYYCATYFANNFDYWGQGTTLTVSS VL: DIQMTQSPSSLSASVGDRVTITCKASQSVDYDGDSYMNWYQQKPGKAPKLLIYAASNLESGVPSRFSGSGSGTDFTLTISPVQAEDFATYYCQQSNEDPLTFGAGTKLELKR
	73		RSPO4-Fc fusion protein (Fc fusion, not shown: a dimerising Fc or GST; small tags and cut ends, Full-length human RSPO4 ligated in-frame to a human Fc region, expressed in insect cells) NRRKKQVGTGLGGNCTGCIICSEENGCSTCQQRLFLFIRREGIRQYGKCLHDCPPGYFGIRGQEVNRCKKCGATCESCFSQDFCIRCKRQFYLYKGKCLPTCPPGTLAHQNTRECQGECELGPWGGWSPCTHNGKTCGSAWGLESRVREAGRAGHEEAATCQVLSESRKCPIQRPCPGERSPGQKKGRKDRRPRKDRKLDRRLDVRPRQPGLQP
	110		RSPO1-Fc fusion protein (Fc fusion, not shown: human Fc region) SRGIKGKRQRRISAEGSQACAKGCELCSEVNGCLKCSPKLFILLERNDIRQVGVCLPSCPPGYFDARNPDMNKCIKCKIEHCEACFSHNFCTKCKEGLYLHKGRCYPACPEGSSAANGTMECSSPAQCEMSEWSPWGPCSKKQQLCGFRRGSEERTRRVLHAPVGDHAACSDTKETRRCTVRRVPCPEGQKRRKGGQGRRENANRNLARKESKEAGAGSRRRKGQQQQQQQGTVGPLTSAGPA
	< 1		RSPO3-Fc fusion protein (Fc fusion, Full-length human RSPO3 ligated in-frame to a human Fc region, expressed in insect cells; not shown: human Fc region) QNASRGRRQRRMHPNVSQGCQGGCATCSDYNGCLSCKPRLFFALERIGMKQIGVCLSSCPSGYYGTRYPDINKCTKCKADCDTCFNKNFCTKCKSGFYLHLGKCLDNCPEGLEANNHTMECVSIVHCEVSEWNPWSPCTKKGKTCGFKRGTETRVREIIQHPSAKGNLCPPTNETRKCTVQRKKCQKGERGKKGRERKRKKPNKGESKEAIPDSKSLESSKEIPEQRENKQQQKKRKVQDKQKSVSVSTVH
